Results published in PMC1635298.
Like-named read-outs stand apart in the source and are kept apart here.

Columns and labels:
Assay in all cases: EMSA
Slx5 = target: T1, Slx5 (Saccharomyces cerevisiae, UniProt P32828 1-619)
T1 sequence: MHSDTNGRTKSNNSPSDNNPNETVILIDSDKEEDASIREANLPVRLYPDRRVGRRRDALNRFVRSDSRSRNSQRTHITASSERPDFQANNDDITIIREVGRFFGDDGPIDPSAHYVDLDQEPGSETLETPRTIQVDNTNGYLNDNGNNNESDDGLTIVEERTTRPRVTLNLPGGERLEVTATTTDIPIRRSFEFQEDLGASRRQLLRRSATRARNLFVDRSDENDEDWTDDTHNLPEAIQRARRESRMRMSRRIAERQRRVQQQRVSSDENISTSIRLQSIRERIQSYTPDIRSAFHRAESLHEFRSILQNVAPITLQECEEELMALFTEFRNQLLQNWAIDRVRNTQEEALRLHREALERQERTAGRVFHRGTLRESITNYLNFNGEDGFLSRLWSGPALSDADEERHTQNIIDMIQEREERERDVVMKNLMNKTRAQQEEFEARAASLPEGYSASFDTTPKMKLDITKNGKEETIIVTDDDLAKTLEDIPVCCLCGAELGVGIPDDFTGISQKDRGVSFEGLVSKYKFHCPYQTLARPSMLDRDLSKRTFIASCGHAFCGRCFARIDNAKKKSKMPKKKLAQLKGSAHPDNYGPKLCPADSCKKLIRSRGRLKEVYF

[1] = target: T2, Slx5-Slx8 complex, Slx8 subunit;Slx5 (Saccharomyces cerevisiae;Saccharomyces …, UniProt P40072;P32828 1-274;1-619, |)
T2 sequence 1: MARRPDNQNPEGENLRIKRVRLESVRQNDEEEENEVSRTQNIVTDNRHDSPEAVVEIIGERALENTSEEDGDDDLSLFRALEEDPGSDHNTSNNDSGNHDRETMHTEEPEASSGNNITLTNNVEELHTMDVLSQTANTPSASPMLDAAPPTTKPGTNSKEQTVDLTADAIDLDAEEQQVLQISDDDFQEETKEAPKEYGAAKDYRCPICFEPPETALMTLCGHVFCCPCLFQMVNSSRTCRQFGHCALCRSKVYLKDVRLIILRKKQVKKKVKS
T2 sequence 2: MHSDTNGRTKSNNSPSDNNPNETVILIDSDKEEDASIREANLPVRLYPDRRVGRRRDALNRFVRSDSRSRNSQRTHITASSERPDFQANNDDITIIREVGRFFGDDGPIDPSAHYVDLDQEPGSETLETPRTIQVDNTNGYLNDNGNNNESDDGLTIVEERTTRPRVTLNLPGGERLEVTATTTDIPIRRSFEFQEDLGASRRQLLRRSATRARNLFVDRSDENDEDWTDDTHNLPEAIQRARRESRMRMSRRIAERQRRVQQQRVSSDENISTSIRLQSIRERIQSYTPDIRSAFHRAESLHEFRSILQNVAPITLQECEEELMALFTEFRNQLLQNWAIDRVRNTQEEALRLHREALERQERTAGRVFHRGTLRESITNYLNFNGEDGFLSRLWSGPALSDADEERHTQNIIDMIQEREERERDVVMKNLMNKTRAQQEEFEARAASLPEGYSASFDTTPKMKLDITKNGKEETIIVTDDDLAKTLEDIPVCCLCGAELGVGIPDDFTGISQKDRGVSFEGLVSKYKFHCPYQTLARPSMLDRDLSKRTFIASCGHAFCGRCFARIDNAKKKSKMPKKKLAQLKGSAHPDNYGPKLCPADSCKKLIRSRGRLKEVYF

Slx8 = target: T3, Slx8 (Saccharomyces cerevisiae, UniProt P40072 1-274)
T3 sequence: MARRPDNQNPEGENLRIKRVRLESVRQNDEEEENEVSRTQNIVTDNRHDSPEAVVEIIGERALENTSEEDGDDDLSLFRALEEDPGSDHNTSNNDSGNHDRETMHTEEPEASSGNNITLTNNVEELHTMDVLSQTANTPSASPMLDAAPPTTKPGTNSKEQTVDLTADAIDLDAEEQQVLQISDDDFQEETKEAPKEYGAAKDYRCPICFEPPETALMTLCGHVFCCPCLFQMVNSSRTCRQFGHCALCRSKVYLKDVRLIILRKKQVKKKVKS

[2] = target: T2, Slx5-Slx8 complex, Slx8 subunit;Slx5; remark: listed apart in the source
[3] = target: T2, Slx5-Slx8 complex, Slx8 subunit;Slx5; remark: listed apart in the source
[4] = target: T2, Slx5-Slx8 complex, Slx8 subunit;Slx5; remark: listed apart in the source
[5] = target: T2, Slx5-Slx8 complex, Slx8 subunit;Slx5; remark: listed apart in the source

B1: 45 bp dsDNA (1315/1316) (dsDNA)
DNA 1: GGGTCAACGTGGGCAAAGATGTCCTAGCAAGCCAGAATTCGGCAG
DNA 2: CTGCCGAATTCTGGCTTGCTAGGACATCTTTGCCCACGTTGACCC
- binding result (Slx5): no binding
- apparent K (half saturation) [1]: < 0.5 pmol (in reaction; standard volume 20 uL)
- apparent K (half saturation) (Slx8): ~8 pmol (in reaction; standard volume 20 uL)

Binder: GACGCTGCCGAATTCTGGCGTTAGGAGATACCGATAAGCTTCGGCTTAA (ssDNA) [49 nt ssDNA (888)]
- binding result [2]: no binding

B2: 15 bp dsDNA (1312/1320) (dsDNA)
DNA 1: TATCTCCTAACGCCA
DNA 2: TGGCGTTAGGAGATA
- binding result [3]: no binding

B3: 30 bp dsDNA (1313/1314) (dsDNA)
DNA 1: TGGCGTTAGGAGATACCGATAAGCTTCGGC
DNA 2: GCCGAAGCTTATCGGTATCTCCTAACGCCA
- binding result [4]: binds

B4: 90 bp dsDNA (1317/1319) (dsDNA)
DNA 1: GATCCGAATTCTGGCTTGCTAGGACATCTTTGCCCACGTTGACCCGGGTTGGCGTTAGGAGATAGTCAGTTATAGCTGCGGCTGCTAAGG
DNA 2: GATCCCTTAGCAGCCGCAGCTATAACTGACTATCTCCTAACGCCAACCCGGGTCAACGTGGGCAAAGATGTCCTAGCAAGCCAGAATTCG
- binding result [5]: binds
